B1: DNA mismatch repair protein Mlh1 (Homo sapiens), P40692 (parent)
chain: MSFVAGVIRRLDETVVNRIAAGEVIQRPANAIKEMIENCLDAKSTSIQVIVKEGGLKLIQIQDNGTGIRKEDLDIVCERFTTSKLQSFEDLASISTYGFRGEALASISHVAHVTITTKTADGKCAYRASYSDGKLKAPPKPCAGNQGTQITVEDLFYNIATRRKALKNPSEEYGKILEVVGRYSVHNAGISFSVKKQGETVADVRTLPNASTVDNIRSIFGNAVSRELIEIGCEDKTLAFKMNGYISNANYSVKKCIFLLFINHRLVESTSLRKAIETVYAAYLPKNTHPFLYLSLEISPQNVDVNVHPTKHEVHFLHEESILERVQQHIESKLLGSNSSRMYFTQTLLPGLAGPSGEMVKSTTSLTSSSTSGSSDKVYAHQMVRTDSREQKLDAFLQPLSKPLSSQPQAIVTEDKTDISSGRARQQDEEMLELPAPAEVAAKNQSLEGDTTKGTSEMSEKRGPTSSNPRKRHREDSDVEMVEDDSRKEMTAACTPRRRIINLTSVLSLQEEINEQGHEVLREMLHNHSFVGCVNPQWALAQHQTKLYLLNTTKLSEELFYQILIYDFANFGVLRLSEPAPLFDLAMLALDSPESGWTEEDGPKEGLAEYIVEFLKKKAEMLADYFSLEIDEEGNLIGLPLLIDNYVPPLEGLPIFILRLATEVNWDEEKECFESLSKECAMFYSIRKQYISEESTLSGQQSEVPGSIPNSWKWTVEHIVYKALRSHILPPKHFTEDGNILQLANLPDLYKVFERC
partner: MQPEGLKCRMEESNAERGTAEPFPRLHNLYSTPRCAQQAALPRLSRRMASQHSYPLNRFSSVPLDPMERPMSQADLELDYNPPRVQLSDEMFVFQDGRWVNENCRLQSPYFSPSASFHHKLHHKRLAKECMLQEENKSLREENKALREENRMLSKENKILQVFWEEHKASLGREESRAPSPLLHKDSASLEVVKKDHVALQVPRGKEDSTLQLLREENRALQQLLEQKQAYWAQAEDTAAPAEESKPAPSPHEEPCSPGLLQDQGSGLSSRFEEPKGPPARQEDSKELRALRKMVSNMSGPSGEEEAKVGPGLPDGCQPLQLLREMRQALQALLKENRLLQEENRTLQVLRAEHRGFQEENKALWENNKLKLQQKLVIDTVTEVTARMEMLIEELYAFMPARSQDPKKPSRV
B2: Plakophilin-2 (Homo sapiens), Q99959-2 (parent)
chain: MAAPGAPAEYGYIRTVLGQQILGQLDSSSLALPSEAKLKLAGSSGRGGQTVKSLRIQEQVQQTLARKGRSSVGNGNLHRTSSVPEYVYNLHLVENDFVGGRSPVPKTYDMLKAGTTATYEGRWGRGTAQYSSQKSVEERSLRHPLRRLEISPDSSPERAHYTHSDYQYSQRSQAGHTLHHQESRRAALLVPPRYARSEIVGVSRAGTTSRQRHFDTYHRQYQHGSVSDTVFDSIPANPALLTYPRPGTSRSMGNLLEKENYLTAGLTVGQVRPLVPLQPVTQNRASRSSWHQSSFHSTRTLREAGPSVAVDSSGRRAHLTVGQAAAGGSGNLLTERSTFTDSQLGNADMEMTLERAVSMLEADHMLPSRISAAATFIQHECFQKSEARKRVNQLRGILKLLQLLKVQNEDVQRAVCGALRNLVFEDNDNKLEVAELNGVPRLLQVLKQTRDLETKKQITGLLWNLSSNDKLKNLMITEALLTLTENIIIPFSGWPEGDYPKANGLLDFDIFYNVTGCLRNMSSAGADGRKAMRRCDGLIDSLVHYVRGTIADYQPDDKATENCVCILHNLSYQLEAELPEKYSQNIYIQNRNIQTDNNKSIGCFGSRSRKVKEQYQDVPMPEEKSNPKGVEWLWHSIVIRMYLSLIAKSVRNYTQEASLGALQNLTAGSGPMPTSVAQTVVQKESGLQHTRKMLHVGDPSVKKTAISLLRNLSRNLSLQNEIAKETLPDLVSIIPDTVPSTDLLIETTASACYTLNNIIQNSYQNARDLLNTGGIQKIMAISAGDAYASNKASKAASVLLYSLWAHTELHHAYKKAQFKKTDFVNSRTAKAYHSLKD
partner: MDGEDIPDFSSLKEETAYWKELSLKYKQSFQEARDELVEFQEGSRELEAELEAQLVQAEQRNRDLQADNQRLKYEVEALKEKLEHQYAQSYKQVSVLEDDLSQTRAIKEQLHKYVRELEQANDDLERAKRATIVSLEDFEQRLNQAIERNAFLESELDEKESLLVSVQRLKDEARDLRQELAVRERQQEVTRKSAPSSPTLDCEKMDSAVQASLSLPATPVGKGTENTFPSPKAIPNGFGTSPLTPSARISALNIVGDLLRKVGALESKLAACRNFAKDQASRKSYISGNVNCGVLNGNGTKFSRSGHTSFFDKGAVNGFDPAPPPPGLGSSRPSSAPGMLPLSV
B3: Emerin (Homo sapiens), P50402 (parent)
chain: MDNYADLSDTELTTLLRRYNIPHGPVVGSTRRLYEKKIFEYETQRRRLSPPSSSAASSYSFSDLNSTRGDADMYDLPKKEDALLYQSKGYNDDYYEESYFTTRTYGEPESAGPSRAVRQSVTSFPDADAFHHQVHDDDLLSSSEEECKDRERPMYGRDSAYQSITHYRPVSASRSSLDLSYYPTSSSTSFMSSSSSSSSWLTRRAIRPENRAPGAGLGQDRQVPLWGQLLLFLVFVIVLFFIYHFMQAEEGNPF
partner: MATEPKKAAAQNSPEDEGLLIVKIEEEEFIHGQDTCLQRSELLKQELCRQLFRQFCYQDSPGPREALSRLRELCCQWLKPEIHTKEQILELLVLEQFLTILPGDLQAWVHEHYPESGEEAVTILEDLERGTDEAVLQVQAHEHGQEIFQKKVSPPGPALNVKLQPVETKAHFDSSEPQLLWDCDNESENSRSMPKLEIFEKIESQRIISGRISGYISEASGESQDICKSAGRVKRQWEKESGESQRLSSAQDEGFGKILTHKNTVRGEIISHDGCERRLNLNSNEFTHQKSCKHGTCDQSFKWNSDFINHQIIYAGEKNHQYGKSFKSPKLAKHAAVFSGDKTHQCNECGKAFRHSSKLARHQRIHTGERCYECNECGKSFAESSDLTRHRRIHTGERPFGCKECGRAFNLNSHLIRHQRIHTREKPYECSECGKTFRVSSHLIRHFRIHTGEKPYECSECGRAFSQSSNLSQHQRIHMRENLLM

In one test the parent is B1. To be noted: with CBY2, Q8NA61-2.
S44F: the “effect of a mutation on the interaction” value is reported as “disrupting interaction strength”.

The variants in another test derive from B2. Particulars: with ndel1_human NDEL1, Q9GZM8.
S140F: the “effect of a mutation on the interaction” value is “disrupting interaction strength”. On to A264V, for which the “effect of a mutation on the interaction” value was “with no effect”. On the same count and under the same terms, the same measure for S644P: “disrupting interaction strength”.

The next test covers variants of B3. Particulars: with zn165_human ZNF165, P49910.
As for MDNYADLSDTELTTLLRRYNIPHGPVVGSTRRLYEKKIFEYETQRRRLSPPSSSAASSYSFSDLNSTRGDAVMYDLPKKEDALLYQSKGYNDDYYEESYFTTRTYGEPESAGPSRAVRQSVTSFPDADAFHHQVHDDDLLSSSEEECKDRERPMYGRDSAYQSITHYRPVSASRSSLDLSYYPTSSSTSFMSSSSSSSSWLTRRAIRPENRAPGAGLGQDRQVPLWGQLLLFLVFVIVLFFIYHFMQAEEGNPF [D72V], the “effect of a mutation on the interaction” value is recorded as “with no effect”. On to MDNYADLSDTELTTLLRRYNIPHGPVVGSTRRLYEKKIFEYETQRRRLSPPSSSAASSYSFSDLNSTRGDADMYDLPKKEDALLYQSKGYNDDYYEESYFTTRTYGEPESAGPSRAVRQSVTSFPDADAFHHQVHDDDLLSSSEEECKDRERPMYGRDSAYQSITHYRPVSASRSSLDLSYYTTSSSTSFMSSSSSSSSWLTRRAIRPENRAPGAGLGQDRQVPLWGQLLLFLVFVIVLFFIYHFMQAEEGNPF [P183T], for which the “effect of a mutation on the interaction” value is given as “with no effect”. On the same count and under the same terms, the same measure for MDNYADLSDTELTTLLRRYNIPHGPVVGSTRRLYEKKIFEYETQRRRLSPPSSSAASSYSFSDLNSTRGDADMYDLPKKEDALLYQSKGYNDDYYEESYFTTRTYGEPESAGPSRAVRQSVTSFPDADAFHHQVHDDDLLSSSEEECKDRERPMYGRDSAYQSITHYRPVSASRSSLDLSYYHTSSSTSFMSSSSSSSSWLTRRAIRPENRAPGAGLGQDRQVPLWGQLLLFLVFVIVLFFIYHFMQAEEGNPF [P183H]: “with no effect”. Regarding MDNYADLSDTELTTLLRRYNIPHGPVVGSTRRLYEKKIFEYETQRRRLSPPSSFAASSYSFSDLNSTRGDADMYDLPKKEDALLYQSKGYNDDYYEESYFTTRTYGEPESAGPSRAVRQSVTSFPDADAFHHQVHDDDLLSSSEEECKDRERPMYGRDSAYQSITHYRPVSASRSSLDLSYYPTSSSTSFMSSSSSSSSWLTRRAIRPENRAPGAGLGQDRQVPLWGQLLLFLVFVIVLFFIYHFMQAEEGNPF [S54F], the “effect of a mutation on the interaction” value is “with no effect”.
